The supplement of paper PMC9732359
± gives the uncertainty stated by the source.

Experiment: protein stability index of a GFP-peptide fusion (yeast GPS) (PSI 1-4); higher = more stable; sorted into four equal gates, so the index is relative within each strain
Settings: pdr5∆
Summary of the method: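 Peptides tiling yeast proteins in 17-residue segments were fused downstream of GFP, with Cherry expressed from the same plasmid. As a pooled library in yeast, mid-log cultures grown in leucine-free medium were sorted into four equal gates by GFP/Cherry fluorescence ratio. Gate plasmids were PCR-amplified and Illumina-sequenced, and barcodes linked reads to strains. Each peptide received a protein stability index equal to the sum of each gate's read frequency times its gate number.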

Row | Sequence | protein stability index
1 | FKKDFEVNISSLDAREA [RPC40] | 1.58 ± 0.067

Same assay, conditions: san1∆

Row | Sequence | protein stability index
2 | EQTVEYMVSRAIRDGVI [RPN3] | 2.64 ± 0.17
3 | ERAAQKLRLDQLVIQQG [ISW2] | 2.74 ± 0.082
4 | ERGFACIPLVGISVPFH [FAS1] | 1.22 ± 0.12
5 | ERHQKQLNEKLVGRLRK [YCS4] | 3.02 ± 0.06
6 | ERLHELKKLQSDIESAN [SMC1] | 3.19 ± 0.061
7 | ERLKQLTPNEIKELEHL [SWP82] | 2.73 ± 0.049
8 | ERLMISSDAFEVDVCDK [RET1] | 2.04 ± 0.061
9 | ERLTNSLMMNGRNNGKK [RPS5] | 2.54 ± 0.071
10 | ERNAFLSDYEVLKFLTD [RPC17] | 3.28 ± 0.05
11 | ERNNIGEICKNYELEKI [YDL116W/NUP84] | 2.94 ± 0.09
12 | ERQQDELENFLDNFETK [YJL041W/NSP1] | 3.48 ± 0.13
13 | ERSKQLNEKFQELRKKV [SMC2] | 3.33 ± 0.097
14 | ERVIVVTGFAEVGPWGS [FAS2] | 2.03 ± 0.11
15 | ESDNYRLLPNGSNKAQI [YML031W/NDC1] | 2.78 ± 0.047
16 | ESEQELSLHTGFIENCN [MTR3] | 2.88 ± 0.063
17 | ESESERKYDLFQNLELE [SMC2] | 3.35 ± 0.068
18 | ESFAELMTKLNSFKLFK [RPC17] | 1.59 ± 0.099
19 | ESGKVFIGRLPIMLRSK [RPB2] | 2.94 ± 0.08
20 | ESLKNLNESRSQHKKIL [SMC3] | 2.85 ± 0.1
21 | ESLTNSNMFDNSADVDM [YGL100W/SEH1] | 3.48 ± 0.056
22 | ESMAYTAFQTQRTAQDR [YML031W/NDC1] | 3.23 ± 0.067
23 | ESNDRINKIVEILTNQQ [YGR119C/NUP57] | 2.57 ± 0.13
24 | ESNIKMTLEDNNVTSNP [SSN2] | 2.68 ± 0.086
25 | ESRAQNVFGQDNEDSDN [SWI3] | 3.33 ± 0.048
26 | ESRSFSPIPFPPLTYKN [PRP8] | 2.6 ± 0.058

Row | Sequence | protein stability index
27 | ESYYNWKYNNFLQKFEI [YML103C/NUP188] | 2.77 ± 0.059
28 | ETAAMASLALAHVFVGT [RPN1] | 1.61 ± 0.098
29 | ETALEFLEKEKQLTLLR [SMC4] | 2.66 ± 0.12
30 | ETATLIMNELYRMKGGR [SMC3] | 2.82 ± 0.1
31 | ETFQDTFSGALGKQSSS [FAS2] | 3.15 ± 0.039
32 | ETLAYNSLKETLQDFHL [SNF2] | 2.61 ± 0.055
33 | ETLENNIVSVLTAGVNS [RPN11] | 2.24 ± 0.11
34 | ETLVLDEADKMIDLGFE [PRP28] | 3.31 ± 0.088
35 | ETLVLSYFSPINSSNEA [YCG1] | 1.25 ± 0.19
36 | ETRNGKVKNQGADVTNT [YCS4] | 3.11 ± 0.072
37 | ETRRKTTTVLKRYANHT [RET1] | 3.09 ± 0.045
38 | ETVKLPRVSNQSNEDTF [RRI2] | 2.94 ± 0.19
39 | EVAQYLQEIYQTDAIKS [RPN5] | 2.47 ± 0.1
40 | EVESSDTIDNVKSKIQD [RPS31] | 3.12 ± 0.1
41 | EVLTYVNYLISNTMYSV [YJL039C/NUP192] | 2.45 ± 0.044
42 | EVPEGVTVSIKSRIVKV [RPL9A] | 1.57 ± 0.097
43 | EVYDFTHAVGNNCEDFV [FAS1] | 2.99 ± 0.071
44 | EWRKSAIANTLLYLRLK [PRP8] | 1.41 ± 0.095
45 | EYEELKEKIEKLSKSAT [SMC1] | 2.98 ± 0.079
46 | EYFGGESPVDVQSQVDS [FAS1] | 3.19 ± 0.11
47 | EYIELEYRDLYTNSVEL [YMR129W/POM152] | 3.27 ± 0.085
48 | EYKKHFPPNLEKGENPS [UBP6] | 2.42 ± 0.073
49 | EYKSLFVVGVDNVSSQQ [RPP0] | 3.29 ± 0.091
50 | EYKTSSDSLGPDTSNEI [SRB2] | 2.96 ± 0.2
51 | EYKVITSLQGTYEAIEI [YMR129W/POM152] | 2.89 ± 0.14

Row | Sequence | protein stability index
52 | EYLTLNDFNDLNIDWST [MED2] | 2.6 ± 0.053
53 | EYMVQYIDEMYNHNDGG [RRI1] | 3.21 ± 0.14
54 | EYNKPNSEKFVFLLTTR [ISW2] | 1.59 ± 0.083
55 | EYSPEILQIREEIPSKS [RRP6] | 2.54 ± 0.072
56 | EYSYVDSNMDSISSVVS [RPN4] | 2.68 ± 0.076
57 | EYYRIQKQLPQKTRVKL [ESC2] | 2.86 ± 0.05
58 | FANNHFLNSNAVVVGTG [COR1] | 2.33 ± 0.064
59 | FASLRVLPDADVKLLHS [YJL039C/NUP192] | 1.54 ± 0.2
60 | FAWSKPSTGSNLQQQQQ [YGR119C/NUP57] | 3.02 ± 0.05
61 | FDDSDITKFALFAESHD [YML103C/NUP188] | 2.92 ± 0.15
62 | FDENIARDIISHNFQNA [PCI8] | 2.67 ± 0.043
63 | FDFLMNMPNCDYLTLNK [RPN2] | 2.07 ± 0.076
64 | FDIIEESFKGLQPFWFR [ECM29] | 2.35 ± 0.17
65 | FDNYQRNNFLAENSHTQ [PUP1] | 3.17 ± 0.058
66 | FDTVSNKLFTEPIKLEP [YMR129W/POM152] | 2.64 ± 0.057
67 | FEASCMEGQKLDDPVLN [YJR042W/NUP85] | 1.45 ± 0.21
68 | FEGTPPFSLTYVRTEET [YMR129W/POM152] | 2.54 ± 0.059
69 | FEGWGHEYIRHLALEIG [RPN1] | 2.41 ± 0.12
70 | FEKKLSIIKAKLPLLNE [YML103C/NUP188] | 1.85 ± 0.23
71 | FELFDNKTAHLSIPGKS [SNU114] | 2.25 ± 0.058
72 | FEQDSHLRYQPDGVVVH [SNF6] | 3.07 ± 0.046
73 | FEQTAFSRHAQQQTSTF [SIR4] | 1.79 ± 0.093
74 | FETFLVDVNNKFIALCE [SIN4] | 3.09 ± 0.045
75 | FEYVLYPSKTLKTDGVR [FAS2] | 2.26 ± 0.099
76 | FFLQRKLRSELGYKDTS [BRR2] | 1.71 ± 0.12

Row | Sequence | protein stability index
77 | FFNGKALNNAIPGGPKF [PRP8] | 2.87 ± 0.17
78 | FFRNKLKYHDFLRKATA [RPL16B] | 2.4 ± 0.079
79 | FGHLMHYGNEHIRRMVP [RPN1] | 1.6 ± 0.063
80 | FGNIMDNLLEMSDHSLD [RRP6] | 1.89 ± 0.1
81 | FGPHVDVNDVLTKYIRS [GRR1] | 3.41 ± 0.046
82 | FGQDVSPMINSTSSGKV [SNM1] | 2.74 ± 0.067
83 | FGSADDTYPYLTGEWST [FAS1] | 1.21 ± 0.086
84 | FGSKPTGATSLFGSSNN [YGL172W/NUP49] | 3.54 ± 0.044
85 | FGYPETIANSIILHFAN [YMR153W/NUP53] | 1.88 ± 0.09
86 | FHGTSTKANDKNESATI [FAS2] | 2.95 ± 0.075
87 | FHSEPDRDENWIHVSCL [LIN1] | 3.07 ± 0.045
88 | FICSIIQTVVISLLALP [YML031W/NDC1] | 1.34 ± 0.11
89 | FIDHHAAIRQPTRYVLI [POP1] | 1.77 ± 0.098
90 | FIDSICKLFDKISFNLR [SRB8] | 1.96 ± 0.063
91 | FIKVVNYNHLLPTRYTL [RPL27A] | 2.07 ± 0.098
92 | FILLDRLRQFNLQPIST [SMC4] | 1.49 ± 0.061
93 | FINNVLSNPSNQNICTS [GRR1] | 2.53 ± 0.054
94 | FITAKDKYKLYPVRIPR [YJR042W/NUP85] | 3.06 ± 0.077
95 | FIYGMSAKDHPKVKEIK [PRP8] | 2.72 ± 0.23
96 | FKDRFKDEPVQNDILQE [FAS2] | 3.23 ± 0.072
97 | FKGHSHIVQDCTLTADG [ASC1] | 2.06 ± 0.16
98 | FKHGPMSLINDAMVTRT [SMD2] | 2.76 ± 0.093
99 | FKIHTAKVKKTGEFDFE [RPT4] | 2.29 ± 0.17
100 | FKIWHGEINKICMESLF [PCI8] | 1.42 ± 0.1
101 | FKKAAPSPISHVAEIRS [RPB2] | 1.77 ± 0.058
